Measured values: patent publication US20210077563A1 (VIB VZW, published 2021)

Molecular target: the molecule itself
Assay: ESI-IMS-MS of colpeptin1 in 100 mM ammonium acetate buffer (self-association)

B1: Colpeptin1 (P2) (peptide)
peptide: RGLGLALVRRPRGLGLALVRR
B1: binds.
